Measured values as given in patent US20160272683A1 (Novo Nordisk, published 2016).
Numbered stars: 1 amine (or outer) side, 2 acyl side, 3 side chain; on linkers, the order of the positions; unused ones are H or OH. Side chains are listed from the residue outwards. Ends that are not written are not given here. * marks the point of attachment. C20 diacid = O=C(O)CCCCCCCCCCCCCCCCCCC(=O)*; C18 diacid = O=C(O)CCCCCCCCCCCCCCCCC(=O)*; γGlu = O=C(O)[C@H](CCC(=O)[*:2])N[*:1]

How the values were obtained:
[1] = molecular target: T1, human amylin 3(a) receptor (human calcitonin receptor co-expressed with RAMP-3) (human, UniProt P30988 25-474; O60896 24-148, limits assumed); experiment: cell-based or functional assay
T1 sequence (looked up) 1: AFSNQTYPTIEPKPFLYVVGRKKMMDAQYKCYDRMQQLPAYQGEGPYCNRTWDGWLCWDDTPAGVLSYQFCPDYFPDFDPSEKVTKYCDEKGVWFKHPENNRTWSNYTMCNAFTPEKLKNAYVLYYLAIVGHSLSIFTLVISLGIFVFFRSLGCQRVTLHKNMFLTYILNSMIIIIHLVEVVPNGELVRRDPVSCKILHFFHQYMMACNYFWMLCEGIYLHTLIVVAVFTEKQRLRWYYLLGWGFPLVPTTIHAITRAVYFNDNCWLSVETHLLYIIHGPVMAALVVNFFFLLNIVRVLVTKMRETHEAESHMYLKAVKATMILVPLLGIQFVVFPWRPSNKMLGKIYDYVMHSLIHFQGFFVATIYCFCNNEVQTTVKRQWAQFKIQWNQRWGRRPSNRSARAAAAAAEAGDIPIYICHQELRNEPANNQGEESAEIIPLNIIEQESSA
T1 sequence (looked up) 2: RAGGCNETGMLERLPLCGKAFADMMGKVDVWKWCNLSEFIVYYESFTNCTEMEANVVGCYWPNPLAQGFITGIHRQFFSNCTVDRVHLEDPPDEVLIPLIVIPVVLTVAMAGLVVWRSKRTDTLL

[2] = molecular target: T2, human calcitonin receptor (human, UniProt P30988 25-474); experiment: cell-based or functional assay
T2 sequence (looked up): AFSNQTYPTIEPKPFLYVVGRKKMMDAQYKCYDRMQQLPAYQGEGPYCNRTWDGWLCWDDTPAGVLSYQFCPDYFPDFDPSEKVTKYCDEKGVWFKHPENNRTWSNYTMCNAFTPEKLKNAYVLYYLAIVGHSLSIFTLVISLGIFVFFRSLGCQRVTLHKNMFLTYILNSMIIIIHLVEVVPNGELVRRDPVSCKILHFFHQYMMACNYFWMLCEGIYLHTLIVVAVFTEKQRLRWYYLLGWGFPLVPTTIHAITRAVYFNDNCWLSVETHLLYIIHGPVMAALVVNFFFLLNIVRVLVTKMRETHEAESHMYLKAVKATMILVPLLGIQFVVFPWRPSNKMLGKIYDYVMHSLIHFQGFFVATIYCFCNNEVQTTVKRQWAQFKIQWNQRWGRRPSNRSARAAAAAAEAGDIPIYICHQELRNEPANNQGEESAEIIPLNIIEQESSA

B1: [N-terminal(C18 diacid), 9I]mimylin (peptide)
peptide: {C18 diacid}-EASELSTAILGRLSAELHELATLPRTETGPESP-NH2
SMILES: CC[C@H](C)[C@H](NC(=O)[C@H](C)NC(=O)[C@@H](NC(=O)[C@H](CO)NC(=O)[C@H](CC(C)C)NC(=O)[C@H](CCC(=O)O)NC(=O)[C@H](CO)NC(=O)[C@H](C)NC(=O)[C@H](CCC(=O)O)NC(=O)CCCCCCCCCCCCCCCCC(=O)O)[C@@H](C)O)C(=O)N[C@@H](CC(C)C)C(=O)NCC(=O)N[C@@H](CCCNC(=N)N)C(=O)N[C@@H](CC(C)C)C(=O)N[C@@H](CO)C(=O)N[C@@H](C)C(=O)N[C@@H](CCC(=O)O)C(=O)N[C@@H](CC(C)C)C(=O)N[C@@H](Cc1c[nH]cn1)C(=O)N[C@@H](CCC(=O)O)C(=O)N[C@@H](CC(C)C)C(=O)N[C@@H](C)C(=O)N[C@H](C(=O)N[C@@H](CC(C)C)C(=O)N1CCC[C@H]1C(=O)N[C@@H](CCCNC(=N)N)C(=O)N[C@H](C(=O)N[C@@H](CCC(=O)O)C(=O)N[C@H](C(=O)NCC(=O)N1CCC[C@H]1C(=O)N[C@@H](CCC(=O)O)C(=O)N[C@@H](CO)C(=O)N1CCC[C@H]1C(N)=O)[C@@H](C)O)[C@@H](C)O)[C@@H](C)O
hAmylin-R funct. EC50 (pM) [1]: 16 pM
hCTR funct. EC50 (pM) [2]: 5 pM

B2: [N-terminal(C20 diacid-gGlu), des1, 12K, 23Y, 25K, 30S, 31G, 33Y]mimylin (peptide)
peptide: {C20 diacid-γGlu}-ASELSTAALGKLSAELHELATYPKTETGSGSY-NH2
SMILES: CC(C)C[C@H](NC(=O)[C@H](C)NC(=O)[C@H](C)NC(=O)[C@@H](NC(=O)[C@H](CO)NC(=O)[C@H](CC(C)C)NC(=O)[C@H](CCC(=O)O)NC(=O)[C@H](CO)NC(=O)[C@H](C)NC(=O)CC[C@H](NC(=O)CCCCCCCCCCCCCCCCCCC(=O)O)C(=O)O)[C@@H](C)O)C(=O)NCC(=O)N[C@@H](CCCCN)C(=O)N[C@@H](CC(C)C)C(=O)N[C@@H](CO)C(=O)N[C@@H](C)C(=O)N[C@@H](CCC(=O)O)C(=O)N[C@@H](CC(C)C)C(=O)N[C@@H](Cc1c[nH]cn1)C(=O)N[C@@H](CCC(=O)O)C(=O)N[C@@H](CC(C)C)C(=O)N[C@@H](C)C(=O)N[C@H](C(=O)N[C@@H](Cc1ccc(O)cc1)C(=O)N1CCC[C@H]1C(=O)N[C@@H](CCCCN)C(=O)N[C@H](C(=O)N[C@@H](CCC(=O)O)C(=O)N[C@H](C(=O)NCC(=O)N[C@@H](CO)C(=O)NCC(=O)N[C@@H](CO)C(=O)N[C@@H](Cc1ccc(O)cc1)C(N)=O)[C@@H](C)O)[C@@H](C)O)[C@@H](C)O
hAmylin-R funct. EC50 (pM) [1]: 51 pM
hCTR funct. EC50 (pM) [2]: 37 pM

B3: [des1, 4G, 15Q, 21Q, 23Y, 30S, 31K(C20 diacid-gGlu), 32T, 33Y]mimylin (peptide)
peptide: ASGLSTAALGRLSQELHELQTYPRTETGSK([γGlu-C20 diacid])TY-NH2
modifications: N-terminus assumed
SMILES: CC(C)C[C@H](NC(=O)CNC(=O)[C@H](CO)NC(=O)[C@H](C)N)C(=O)N[C@@H](CO)C(=O)N[C@H](C(=O)N[C@@H](C)C(=O)N[C@@H](C)C(=O)N[C@@H](CC(C)C)C(=O)NCC(=O)N[C@@H](CCCNC(=N)N)C(=O)N[C@@H](CC(C)C)C(=O)N[C@@H](CO)C(=O)N[C@@H](CCC(N)=O)C(=O)N[C@@H](CCC(=O)O)C(=O)N[C@@H](CC(C)C)C(=O)N[C@@H](Cc1c[nH]cn1)C(=O)N[C@@H](CCC(=O)O)C(=O)N[C@@H](CC(C)C)C(=O)N[C@@H](CCC(N)=O)C(=O)N[C@H](C(=O)N[C@@H](Cc1ccc(O)cc1)C(=O)N1CCC[C@H]1C(=O)N[C@@H](CCCNC(=N)N)C(=O)N[C@H](C(=O)N[C@@H](CCC(=O)O)C(=O)N[C@H](C(=O)NCC(=O)N[C@@H](CO)C(=O)N[C@@H](CCCCNC(=O)CC[C@H](NC(=O)CCCCCCCCCCCCCCCCCCC(=O)O)C(=O)O)C(=O)N[C@H](C(=O)N[C@@H](Cc1ccc(O)cc1)C(N)=O)[C@@H](C)O)[C@@H](C)O)[C@@H](C)O)[C@@H](C)O)[C@@H](C)O
hAmylin-R funct. EC50 (pM) [1]: 68 pM
hCTR funct. EC50 (pM) [2]: 36 pM

B4: [N-terminal(C20 diacid-gGlu), 4G, 15Q, 21Q, 23Y, 30S, 31G, 32T, 33Y]mimylin (peptide)
peptide: {C20 diacid-γGlu}-EASGLSTAALGRLSQELHELQTYPRTETGSGTY-NH2
SMILES: CC(C)C[C@H](NC(=O)CNC(=O)[C@H](CO)NC(=O)[C@H](C)NC(=O)[C@H](CCC(=O)O)NC(=O)CC[C@H](NC(=O)CCCCCCCCCCCCCCCCCCC(=O)O)C(=O)O)C(=O)N[C@@H](CO)C(=O)N[C@H](C(=O)N[C@@H](C)C(=O)N[C@@H](C)C(=O)N[C@@H](CC(C)C)C(=O)NCC(=O)N[C@@H](CCCNC(=N)N)C(=O)N[C@@H](CC(C)C)C(=O)N[C@@H](CO)C(=O)N[C@@H](CCC(N)=O)C(=O)N[C@@H](CCC(=O)O)C(=O)N[C@@H](CC(C)C)C(=O)N[C@@H](Cc1c[nH]cn1)C(=O)N[C@@H](CCC(=O)O)C(=O)N[C@@H](CC(C)C)C(=O)N[C@@H](CCC(N)=O)C(=O)N[C@H](C(=O)N[C@@H](Cc1ccc(O)cc1)C(=O)N1CCC[C@H]1C(=O)N[C@@H](CCCNC(=N)N)C(=O)N[C@H](C(=O)N[C@@H](CCC(=O)O)C(=O)N[C@H](C(=O)NCC(=O)N[C@@H](CO)C(=O)NCC(=O)N[C@H](C(=O)N[C@@H](Cc1ccc(O)cc1)C(N)=O)[C@@H](C)O)[C@@H](C)O)[C@@H](C)O)[C@@H](C)O)[C@@H](C)O
hAmylin-R funct. EC50 (pM) [1]: 43 pM
hCTR funct. EC50 (pM) [2]: 23 pM

B5: [N-terminal(C20 diacid-gGlu), des1, 4G, 9V, 23Y, 30S, 31G, 32T, 33Y]mimylin (peptide)
peptide: {C20 diacid-γGlu}-ASGLSTAVLGRLSAELHELATYPRTETGSGTY-NH2
SMILES: CC(C)C[C@H](NC(=O)CNC(=O)[C@H](CO)NC(=O)[C@H](C)NC(=O)CC[C@H](NC(=O)CCCCCCCCCCCCCCCCCCC(=O)O)C(=O)O)C(=O)N[C@@H](CO)C(=O)N[C@H](C(=O)N[C@@H](C)C(=O)N[C@H](C(=O)N[C@@H](CC(C)C)C(=O)NCC(=O)N[C@@H](CCCNC(=N)N)C(=O)N[C@@H](CC(C)C)C(=O)N[C@@H](CO)C(=O)N[C@@H](C)C(=O)N[C@@H](CCC(=O)O)C(=O)N[C@@H](CC(C)C)C(=O)N[C@@H](Cc1c[nH]cn1)C(=O)N[C@@H](CCC(=O)O)C(=O)N[C@@H](CC(C)C)C(=O)N[C@@H](C)C(=O)N[C@H](C(=O)N[C@@H](Cc1ccc(O)cc1)C(=O)N1CCC[C@H]1C(=O)N[C@@H](CCCNC(=N)N)C(=O)N[C@H](C(=O)N[C@@H](CCC(=O)O)C(=O)N[C@H](C(=O)NCC(=O)N[C@@H](CO)C(=O)NCC(=O)N[C@H](C(=O)N[C@@H](Cc1ccc(O)cc1)C(N)=O)[C@@H](C)O)[C@@H](C)O)[C@@H](C)O)[C@@H](C)O)C(C)C)[C@@H](C)O
hAmylin-R funct. EC50 (pM) [1]: 67 pM
hCTR funct. EC50 (pM) [2]: 70 pM

B6: [N-terminal(C18 diacid-gGlu), des1, 6T, 9V, 14T, 21E, 30T, 31G, 32T]mimylin (peptide)
peptide: {C18 diacid-γGlu}-ASELTTAVLGRLTAELHELETLPRTETGTGTP-NH2
SMILES: CC(C)C[C@H](NC(=O)[C@H](CCC(=O)O)NC(=O)[C@H](C)NC(=O)[C@@H](NC(=O)[C@H](CC(C)C)NC(=O)[C@H](CCCNC(=N)N)NC(=O)CNC(=O)[C@H](CC(C)C)NC(=O)[C@@H](NC(=O)[C@H](C)NC(=O)[C@@H](NC(=O)[C@@H](NC(=O)[C@H](CC(C)C)NC(=O)[C@H](CCC(=O)O)NC(=O)[C@H](CO)NC(=O)[C@H](C)NC(=O)CC[C@H](NC(=O)CCCCCCCCCCCCCCCCC(=O)O)C(=O)O)[C@@H](C)O)[C@@H](C)O)C(C)C)[C@@H](C)O)C(=O)N[C@@H](Cc1c[nH]cn1)C(=O)N[C@@H](CCC(=O)O)C(=O)N[C@@H](CC(C)C)C(=O)N[C@@H](CCC(=O)O)C(=O)N[C@H](C(=O)N[C@@H](CC(C)C)C(=O)N1CCC[C@H]1C(=O)N[C@@H](CCCNC(=N)N)C(=O)N[C@H](C(=O)N[C@@H](CCC(=O)O)C(=O)N[C@H](C(=O)NCC(=O)N[C@H](C(=O)NCC(=O)N[C@H](C(=O)N1CCC[C@H]1C(N)=O)[C@@H](C)O)[C@@H](C)O)[C@@H](C)O)[C@@H](C)O)[C@@H](C)O
hAmylin-R funct. EC50 (pM) [1]: 235 pM
hCTR funct. EC50 (pM) [2]: 45 pM

B7: [N-terminal(C18 diacid-gGlu), des1, 5V, 9V, 10V, 20V, 30S, 31G]mimylin (peptide)
peptide: {C18 diacid-γGlu}-ASEVSTAVVGRLSAELHEVATLPRTETGSGSP-NH2
SMILES: CC(C)C[C@H](NC(=O)[C@H](CCCNC(=N)N)NC(=O)CNC(=O)[C@@H](NC(=O)[C@@H](NC(=O)[C@H](C)NC(=O)[C@@H](NC(=O)[C@H](CO)NC(=O)[C@@H](NC(=O)[C@H](CCC(=O)O)NC(=O)[C@H](CO)NC(=O)[C@H](C)NC(=O)CC[C@H](NC(=O)CCCCCCCCCCCCCCCCC(=O)O)C(=O)O)C(C)C)[C@@H](C)O)C(C)C)C(C)C)C(=O)N[C@@H](CO)C(=O)N[C@@H](C)C(=O)N[C@@H](CCC(=O)O)C(=O)N[C@@H](CC(C)C)C(=O)N[C@@H](Cc1c[nH]cn1)C(=O)N[C@@H](CCC(=O)O)C(=O)N[C@H](C(=O)N[C@@H](C)C(=O)N[C@H](C(=O)N[C@@H](CC(C)C)C(=O)N1CCC[C@H]1C(=O)N[C@@H](CCCNC(=N)N)C(=O)N[C@H](C(=O)N[C@@H](CCC(=O)O)C(=O)N[C@H](C(=O)NCC(=O)N[C@@H](CO)C(=O)NCC(=O)N[C@@H](CO)C(=O)N1CCC[C@H]1C(N)=O)[C@@H](C)O)[C@@H](C)O)[C@@H](C)O)C(C)C
hAmylin-R funct. EC50 (pM) [1]: 12 pM
hCTR funct. EC50 (pM) [2]: 6 pM

{C18 diacid-γGlu}-ASELTTAVLGRLEAELHELTTLPRTETGTGTP-NH2 [[N-terminal(C18 diacid-gGlu), des1, 6T, 9V, 14E, 21T, 30T, 31G, 32T]mimylin]
hAmylin-R funct. EC50 (pM) [1]: 386 pM
hCTR funct. EC50 (pM) [2]: 66 pM
